Reference: patent US20250121075A1, “ALPHA-FETOPROTEIN BIOCONJUGATES FOR DISEASE TREATMENT” (priority 2021, published 2025)
Numbering of substitutions follows the chain as printed. Where two headings read alike, the source gives them in different places.

B1: AFP-ABZ981 conjugate: AFP bioconjugate releasing ABZ981, DPR 4.0, tested in the PK/BD study (conjugate, UniProt P02771 19-609, looked up)
Alpha-fetoprotein: RTLHRNEYGIASILDSYQCTAEISLADLATIFFAQFVQEATYKEVSKMVKDALTAIEKPTGDEQSSGCLENQLPAFLEELCHEKEILEKYGHSDCCSQSEEGRHNCFLAHKKPTPASIPLFQVPEPVTSCEAYEEDRETFMNKFIYEIARRHPFLYAPTILLWAARYDKIIPSCCKAENAVECFQTKAATVTKELRESSLLNQHACAVMKNFGTRTFQAITVTKLSQKFTKVNFTEIQKLVLDVAHVHEHCCRGDVLDCLQDGEKIMSYICSQQDTLSNKITECCKLTTLERGQCIIHAENDEKPEGLSPNLNRFLGDRDFNQFSSGEKNIFLASFVHEYSRRHPQLAVSVILRVAKGYQELLEKCFQTENPLECQDKGEEELQKYIQESQALAKRSCGLFQKLGEYYLQNAFLVAYTKKAPQLTSSELMAITRKMAATAATCCQLSEDKLLACGEGAADIIIGHLCIRHEMTPVNPGVGQCCTSSYANRRPCFSSLVVDETYVPPAFSDDKFIFHKDLCQAQGVALQTMKQEFLINLVKQKPQITEEQLEAVIADFSGLLEKCCQGQEQEVCFAEEGQKLISKTRAALGV
modifications: ABZ981-releasing toxin conjugate, DPR 4.0
B2: AFP-ABZ982 DPR 2.50: AFP-ABZ982 bioconjugate, average DPR 2.50 (conjugate, UniProt P02771 19-609, looked up)
Alpha-fetoprotein: B1 Alpha-fetoprotein
modifications: ABZ982 toxin conjugate, DPR 2.50
B3: AFP-ABZ982: AFP linked via di-methylated disulfide linker to ABZ-981, mixture of n 1-11 (conjugate)
chain: B1 Alpha-fetoprotein with N233Q
modifications: non-natural residues
B4: AFP-ABZ1827 DPR 3.35: AFP-ABZ1827 bioconjugate, average DPR 3.35 (conjugate, UniProt P02771 19-609, looked up)
Alpha-fetoprotein: B1 Alpha-fetoprotein
modifications: ABZ1827 toxin conjugate, DPR 3.35
B5: AFP-ABZ1827 low DPR: AFP-ABZ1827 bioconjugate, average DPR 3.92 (conjugate, UniProt P02771 19-609, looked up)
Alpha-fetoprotein: B1 Alpha-fetoprotein
modifications: ABZ1827 toxin conjugate, DPR 3.92
B6: AFP-ABZ1827 DPR 5.88: AFP-ABZ1827 bioconjugate, average DPR 5.88 (conjugate, UniProt P02771 19-609, looked up)
Alpha-fetoprotein: B1 Alpha-fetoprotein
modifications: ABZ1827 toxin conjugate, DPR 5.88
B7: AFP-ABZ982 high DPR: AFP-ABZ982 bioconjugate, average DPR 5.81 (conjugate, UniProt P02771 19-609, looked up)
Alpha-fetoprotein: B1 Alpha-fetoprotein
modifications: ABZ982 toxin conjugate, DPR 5.81
B8: AFP-ABZ1827 DPR 4.40: AFP-ABZ1827 bioconjugate, average DPR 4.40 (conjugate, UniProt P02771 19-609, looked up)
Alpha-fetoprotein: B1 Alpha-fetoprotein
modifications: ABZ1827 toxin conjugate, DPR 4.40
B9: AFP-ABZ982 DPR 3.84: AFP-ABZ982 bioconjugate, average DPR 3.84 (conjugate, UniProt P02771 19-609, looked up)
Alpha-fetoprotein: B1 Alpha-fetoprotein
modifications: ABZ982 toxin conjugate, DPR 3.84
B10: AFP-ABZ1827: AFP linked via mono-methylated disulfide linker to ABZ-981, mixture of n 1-11 (conjugate)
chain: B1 Alpha-fetoprotein with N233Q
modifications: non-natural residues
B11: AFP-ABZ982 DPR 6.28: AFP-ABZ982 bioconjugate, average DPR 6.28 (conjugate, UniProt P02771 19-609, looked up)
Alpha-fetoprotein: B1 Alpha-fetoprotein
modifications: ABZ982 toxin conjugate, DPR 6.28
B12: AFP-ABZ982 low DPR: AFP-ABZ982 bioconjugate, average DPR 3.74 (conjugate, UniProt P02771 19-609, looked up)
Alpha-fetoprotein: B1 Alpha-fetoprotein
modifications: ABZ982 toxin conjugate, DPR 3.74
B13: AFP-ABZ982 DPR 5.51: AFP-ABZ982 bioconjugate, average DPR 5.51 (conjugate, UniProt P02771 19-609, looked up)
Alpha-fetoprotein: B1 Alpha-fetoprotein
modifications: ABZ982 toxin conjugate, DPR 5.51

Columns and labels:
SKOV3 cells = experiment: Cytotoxicity of AFP-ABZ982 and AFP-ABZ1827 bioconjugates, 4 day incubation; format: cell-based, human; details: read-out: Average IC50 SKOV3 cells (n = 1), 4 days
Method: (§1) Bioconjugates containing ABZ981 with two different release functionalities (AFP-ABZ982 and AFP-ABZ1827) were subsequently prepared at DPRs of 2.5 to 6.3. Cells were incubated for 4 days in the presence of the compounds over an 8-point concentration range, with each concentration tested in triplicate. Two experiments performed using freshly thawed U937 cells gave similar results to U937 cells maintained in culture.

U937 cells = experiment: as above; format: cell-based, human; details: 4 days
Method: as §1

COLO-205 cells = experiment: CellTiter-Glo cell viability, 72 hours; format: cell-based, human
Method: Turning to Table 5, two bioconjugates of each of AFP-ABZ982 and AFP-ABZ1827 (4 in total) were prepared at DPRs of approximately 4 (“low DPR”) and 6 (“high DPR”) for efficacy testing in vivo in the COLO-205 human tumor xenograft model. Potency in the COLO-205 cell line prior to implantation was assessed. Briefly, 96 well plates were seeded with COLO-205 cells either at 5,000 or 2,500 cells per well in a total volume to 50 μL per well. Plates were incubated overnight then treated with the bioconjugate at 37° C. for 72 hours and then a CellTiter-Glo assay was performed to measure cell viability. Samples were run in triplicate.

[1] = 25 mg/kg single IV, COLO-205 tumor
Method: Bioconjugates containing DM4, DM1 or ABZ981 were resynthesized at a DPR of approximately 4 (Table 3) for comparative testing in a pharmacokinetic/biodistribution (PK/BD) study in mice subcutaneously implanted with COLO-205 tumor xenografts.
The volumes of administration were adjusted to deliver the same amount of bioconjugate (25 mg/kg) to each group of animals as a single IV injection into the tail vein. Blood samples were taken at 0.25 and 1 hours post-injection and blood and tissue samples were taken at 4, 8 and 24 hours to evaluate the pharmacokinetics and biodistribution of the bioconjugates (n=3 per timepoint). A commercially available ELISA kit was used to measure AFP levels and levels of free maytansine and its metabolites were measured by LC/MS.

[2] = system: COLO-205 colorectal cancer xenografts; experiment: COLO-205 colon carcinoma xenograft efficacy, daily dosing for 2 weeks; format: in vivo, mice; details: dosed at MTD, FIG. 2
Method: In the colon carcinoma xenograft model, 7 week old athymic male mice were implanted with 1×10^7 COLO-205 cells subcutaneously in the right flank. Mice with tumors of approximately 100 mm^3 to 200 mm^3 were randomized to receive control (vehicle) or one of the 4 bioconjugates (10 animals/group). Animals were treated daily for 2 weeks with 2 days of rest after 5 doses; tumor volume was assessed twice weekly for 60 days following implantation. FIGS. 2 and 3 reveal the valuable properties of the present bioconjugates in the COLO 205 human xenograft model of colon cancer as shown by this study.

[3] = Maximum tolerated dose in healthy mice; format: in vivo; details: Q1D×5 for 2 weeks, clinical observations and AST/ALT
Method: The four ABZ981-containing bioconjugates above were resynthesized and formulated in a 10 mM HEPES buffer, 5% sucrose at pH 7.5 (Table 6). Prior to testing the efficacy in tumor-bearing mice, the maximum tolerated dose (MTD) was determined for each bioconjugate in healthy mice, employing the same dosing regimen used for the efficacy study (Q1D×5 for 2 weeks) at doses of 0, 5, 10, 20 and 40 mg/kg. MTD was based on clinical observations made daily during the dosing period and elevations of liver enzymes (AST/ALT) determined at the end of treatment. […] In general, a bioconjugate with a higher DPR which carries a larger amount of toxin would be expected to have a lower MTD.

[4] = freshly thawed cells, read-out: Average IC50 U937 freshly thawed cells (n = 2)
[5] = read-out: Average IC50 U937 cultured cells (n = 1), cells maintained in culture

Row | Molecule | IC50 (SKOV3 cells) | IC50 (U937 cells; [4]) | IC50 (U937 cells; [5]) | further results
1 | COc1cc2cc(c1-c1ccc(NC(=O)CCC(C)S)cc1)N(C)C(=O)C[C@H](OC(=O)C(C)C)[C@]1(C)O[C@H]1[C@H](C)[C@@H]1C[C@@](O)(NC(=O)O1)[C@H](OC)/C=C/C=C(\C)C2 (some centres unmarked) [ABZ-981] | – | – | – | IC50 (SKOV3 cells; Homo sapiens, SK-OV-3, 96 h): 5.53 nM; IC50 (U937 cells; Homo sapiens, U-937, 96 h, read-out: Average IC50 U937 cultured cells (n = 1), cells maintained in culture): 3.06 nM; IC50 (U937 cells; Homo sapiens, U-937, 96 h, freshly thawed cells, read-out: Average IC50 U937 freshly thawed cells (n = 2)): 2.84 nM; IC50 (COLO-205 cells; Homo sapiens): 6.1 nM
2 | B1 | – | – | – | Peak free toxin levels normalized to AFP (toxin release in tumors) [1]: 18 % of the AFP levels in tumor; toxin level in tumor (free maytansine plus metabolites), times higher than DM1 conjugate [1]: approximately 3 times; toxin level in tumor (free maytansine plus metabolites), times higher than DM4 conjugate [1]: ~22 times
3 | B2 | 56.1 nM | 5.25 nM | 5.22 nM | –
4 | B3 | – | – | – | effect on the growth of the COLO-205 tumors [2]: dramatic, inhibitory effect
5 | B4 | 66.4 nM | 7.07 nM | 5.52 nM | –
6 | B5 | – | – | – | IC50 (COLO-205 cells): 17.2 nM; Dose (MTD) [3]: 10 mg/kg
7 | B6 | 35.6 nM | 2.93 nM | 2.04 nM | –
8 | B7 | – | – | – | IC50 (COLO-205 cells): 4.1 nM; Dose (MTD) [3]: 10 mg/kg
9 | B8 | 58.8 nM | 5.98 nM | 7.47 nM | –
10 | B9 | 35.5 nM | 5.29 nM | 4.49 nM | –
11 | B10 | – | – | – | effect on the growth of the COLO-205 tumors [2]: dramatic, inhibitory effect
12 | B11 | 37 nM | – | 6.55 nM | –
13 | B12 | – | – | – | IC50 (COLO-205 cells): 12.9 nM; Dose (MTD) [3]: 20 mg/kg
14 | B13 | 17.5 nM | 1.71 nM | 2.01 nM | –
